Biological target: human TLR4 (Toll-like receptor 4) on HEK293 cells expressing human TLR4-MD2-CD14 (human, UniProt O00206 24-839)
Test: cell-based or functional assay

Chain of human TLR4 (Toll-like receptor 4) on HEK293 cells expressing human TLR4-MD2-CD14 (O00206 24-839): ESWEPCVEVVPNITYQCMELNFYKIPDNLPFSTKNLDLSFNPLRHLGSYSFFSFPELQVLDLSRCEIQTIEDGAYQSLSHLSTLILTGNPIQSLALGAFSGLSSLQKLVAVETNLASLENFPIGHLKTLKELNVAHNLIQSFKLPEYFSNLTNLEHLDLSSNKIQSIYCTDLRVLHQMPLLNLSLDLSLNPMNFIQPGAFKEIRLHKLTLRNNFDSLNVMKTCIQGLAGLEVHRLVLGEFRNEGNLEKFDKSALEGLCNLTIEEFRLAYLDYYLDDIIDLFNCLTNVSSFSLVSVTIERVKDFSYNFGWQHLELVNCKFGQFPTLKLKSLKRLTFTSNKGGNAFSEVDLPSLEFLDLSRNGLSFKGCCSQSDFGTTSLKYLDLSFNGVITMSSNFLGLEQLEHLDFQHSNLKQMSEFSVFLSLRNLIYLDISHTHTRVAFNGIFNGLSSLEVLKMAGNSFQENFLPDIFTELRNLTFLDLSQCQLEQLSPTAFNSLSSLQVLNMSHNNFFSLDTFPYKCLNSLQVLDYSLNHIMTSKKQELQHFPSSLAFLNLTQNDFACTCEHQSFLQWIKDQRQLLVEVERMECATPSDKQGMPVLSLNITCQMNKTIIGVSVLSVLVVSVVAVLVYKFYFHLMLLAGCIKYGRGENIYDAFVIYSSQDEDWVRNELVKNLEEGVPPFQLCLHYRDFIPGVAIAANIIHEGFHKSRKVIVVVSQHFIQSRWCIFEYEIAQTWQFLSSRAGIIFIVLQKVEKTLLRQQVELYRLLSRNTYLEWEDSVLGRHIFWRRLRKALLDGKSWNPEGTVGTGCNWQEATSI

B1: EDA-SIINFEKL-6xHis fusion protein (recombinant proteinaceous vector) (ligand)
chain: MNIDRPKGLAFTDVDVDSIKIAWESPQGQVSRYRVTYSSPEDGIRELFPAPDGEDDTAELQGLRPGSEYTVSVVALHDDMESQPLIGIQSTQLESIINFEKLTEWAAALEHHHHHH
  fold NF-κB induction factor (SEAP reporter under NF-κB-inducible ELAM-1 promoter; OD of HEK293/TLR4-MD2-CD14 supernatants divided by OD of HEK293/LacZ supernatants), 100 nM EDA-SIINFEKL: 7 fold
